Source: US20220145298

Assays:
[1] = test system: TnsA(A125D)BC + TniQ-Cascade transposition system (Aeromonas salmonicida); assay: cell_activity; conditions: native array, native A.s. target on F plasmid; transposition in E. coli, mate-out; TACC PAM
[2] = test system: TnsA(wt)BC + TniQ-Cascade transposition system (Aeromonas salmonicida); assay: cell_activity; conditions: wild-type TnsA; native array and native target; no detectable transposition

Sequence: AGGACUGGAAGAAAUCAUCCAAGUUGGGGACU / TCAGGACCGGAAGGTAGCAGCCAAGGCGGGGGACTCGAGTGCCGGGATGTGGCTGATGGGGCCACCAC / GTGGTGGCCCCATCAGCCACATCCCGGCACTCGAGTCCCCCGCCTTGGCTGCTACCTTCCGGTCCTGA [ffs wild-type guide (10 mismatches) ; ffs target]
- activity [1]: 0.0188%
- activity [2]: 0%
